A short description of this series: soluble on expression in E. coli; label from the status in PepcDB or PDB records.
For the sequence “MSLAHLAAMFDDLVARFGDRPAIVDDRALSYRELDLLVRKIAVSLAALGIGKGDRVALFLGNCWEFLAVTLACNRLGVLVVPIGIRQRRAELEFLLNNSGAKVVVFEAELTDEIPAAAEVPQLAHRFVAHGTAEGARPFEDLLAAEPANAPLAEMHEDDTAVILYTSGTTGKPKGAELTHLSILHSSYAFARAHELTERDRGLVAVPLSHVTGLVGVSYATIAAGGCVVLMRQAFKTVDFLALAARERITYSILVPAIYTLAVMHPEFDKHDLSAWRIGCFGGAPMPVPTIEMLAKRLPNLQLRNAYGATETTSPTTIMPQAYWRDHMDSVGQAVPYAHVRVLDADDNEVAPGEPGELLIAGPMVVPRYWQRPDANAKEFVNGYWRSGDIGSIDQDGFVRVFDRKKDMINRGGFKIFSAEVENVICGIDGVLETAIIGTPDPVLGERVNAIVVTSEGASLSERDVAAYCAARMSDYKVPESIIIRSEPLPRNANGKIQKTVLRETIADRAASYAREGHHHHHH”, the “soluble on expression in E. coli” value is “not soluble”.
In the case of “KHLPEPFRIRVIEPVKRTTRAYREEAIIKSGMNPFLLDSEDVFIDLLTDSGTGAVTQSMQAAMMRGDEAFSGSRSYYALAESVKNIFGYQYTIPTHQGRGAEQIYIPVLIKKREQEKGLDRSKMVAFSNYFFDTTQGHSQINGCTVRNVYIKEAFDTGVRYDFKGNFDLEGLERGIEEVGPNNVPYIVATITSNSAGGQPVSLANLKAMYSIAKKYDIPVVMDSARFAENAYFIKQREAEYKDWTIEQITRETYKYADMLAMSAKKDAMVPMGGLLCMKDDSFFDVYTECRTLCVVQEGFPTYGGLEGGAMERLAVGLYDGMNLDWLAYRIAQVQYLVDGLEEIGVVCQQAGGHAAFVDAGKLLPHIPADQFPAQALACELYKVAGIRAVEIGSFLLGRDPKTGKQLPCPAELLRLTIPRATYTQTHMDFIIEAFKHVKENAANIKGLTFTYEPKVLRHFTAKLKEV”, the “soluble on expression in E. coli” value was “soluble”.
Consider “MQARYRDWGIFKYWFRAVEKNAPWVHKIFIITDHQNPKFLNKHSSKIVFVNHEDFIPNEYLPTFNSDAIEIGIQNIPGLSEHFVFFNDDMFINKPVKPIDFFDGNIPKDSGVMGPQFPISNSITHITVNNMEIINKYFLKKKVLRKYFFKFFNWRYGKDNIRTATALPWQVFIGFYDMHIPISFLKSTFDNVWSEVGNLLSQNYQHRFRSQLDYSVWLMRYFQLASGNFFPRRTRFGKYYNLGEQTEEIINDIKTGKHALIVLNDQESINDYPYEKKLVNEVFERRYSRLEHHHHHH”, for which the “soluble on expression in E. coli” value is listed as “soluble”.
The same measure for “MKETDLRVIKTKKALSSSLLQLLEQQLFQTITVNQICDNALVHRTTFYKHFYDKYDLLEYLFNQLTKDYFARDISDRLNHPFQTMSDTINNKEDLREIAEFQEEDAEFNKVLKNVCIKIMHNDIKNNRDRIDIDSDIPDNLIFYIYDSLIEGFIHWIKDEKIDWPGEDIDNIFHRLINIKIK”: “soluble”; for “MTTKHSRTPGRPRQFDPEQAIETAQHLFHSRGYDAVSVADLTKAFGINPPSFYAAFGSKLGLYTRVLKRYRMTDAIPLGALLRHDRPTAKCLIDVLMEAARRYAADPDATGCLVLEGAHCNDKPAREAACEFYIAAENLIRTYVAMRYPQEADRTTDFMGTLMAGLSAKARAGYGLERLQESVLLAGDVLERLLPD”: “not soluble”; for “MGSDKIHHHHHHMKLWAIYFEPEDWVGFRETRRFSFSDRVESVFPSSFPFYGAVRTALLMKNQKFDPGDVERAGDVRMFGPFVFENTPEGRKHYFPLPRNIYKTDSGYRVTPIVEIDGVYLPWKPEYKMDSKESTSGGLIELSDLELLRSNTQGVCKFDLVSAEKIFKKETHIGVAFEENRKKVKERMIYSISYYRFYDGGFFMFTDDERTVELVSKLDGVFLGMKSKWSAVEVEELNTTAFDPPDYKNVAVALITPAVFDGGGMPKDKTILGKRVLTTAGIRKQVVSGWDLRENKPKKIYHAVSPGAVYYLEGKVNGHVLNESKFTDFGFGRCIFMKYEKL”: “not soluble”.
The same measure for “MAHHHHHHMASQKPEDVTVSDGMLANLEREFNEAMRALEGHVKFVCFREEYEKLHRALLNSHESEKRLVRRCQQLTQELMSNAAKMQAAVKLAQDDHTTIEALKKETEKAWRMVDVANEKDARAKETIKKLREEVFSLQEIVENGTELTPTQTATLEELKLEKKRMQSEYDELVKQMETLTRETFELGHKMKEAEEEMMKHQEELRRVTDREKTVRQEYEKELRARDRSNLQLREQLLLVQQREKELKSHEQLHSKLSSAVNLLRLQLQEDQNRRQALAQKIESAERQLYHTQQSYDDAVDTREALNERHREVRKEITEAEKKAVDITAEKQRTHRVRDNDYKELCRLVQQNEDIRRDQTNLERQRLNVEKRIEMARREKEDLCRAFEMMQREKDSLKKVSEKEREKMQIMKN”: “soluble”.
The same measure for “MTERLEFTESAFEILGRKWNGLIIQSLLDSDRGSLHFAELSRSVHACSDRVLTVRLKELEDAGIIKRVCCPDNGKLGYRLTEKGSSMRPLMSEISRWAAENI”: “not soluble”; for “MSLIMTTFIQLHLLTAYAPANLNRDESGRPKTAFMGGVERLRVSSQSLKRAWRVSETFEAAMDGFMGKRTRRIGVDYVYRPMKDAGIEEKIAKSSSELIAKQFGKLKSDKDAKPEKNLEIEQIVHVSNHEISLIKQLVDTLIADKREPNDEEVKLLRKEQRSVDMALFDRMLASSPEFNVEAACQVSHALGVSAVTVESDFFTAVDDLNNKEEDAGSGHMGEQGFASALFYTYVCISRDLLVENLGGNEELAKRTIAALTETALTVSPTGKQNSFASRAYATYALAEVGQKQPRSLAAAFFQPVRDTDQIPAAITRLKQQRASFDSVYGNCADDYRELNVQEGTGSLAELLAFVSQEGHHHHHH”: “soluble”.
For the sequence “MPDAQILSTHEHGVVVALGDIRTADSITTVVAGVGSANPTQWLNYVERAQHIQQATGGAAVAWLGYNAPANVAAAAAQTPAQQGASQLQKFQKELRTLNPKARLMVFGHSYGSVVAGHAVAHGLDADTFIVAGSPGVPPNPQLHSPNPRLISVLGSHDIIGLTGTNTVAAHGIDPSALSAQDAGFERWGVAGGHESYFTDKRLEHHHHHH”, the “soluble on expression in E. coli” value was “not soluble”.
To “MAHHHHHHMQAITASTPSQQYSVGAGIEKPLGVTTSADWMTMYERKPHGNSTLFELEAMVAKRMEFLAWVDQQINSPQAKNFDSVLDAIIARLPEERRSSAATDGSRVKMISLGYDETAAGGCSDRRSSSRGSTGSAAGANQAASIVFAPEEDVTSHLLCRFAFCMSERWRDWLVRTERVLLTARIKMEMAKRPFTFLVDLMKRNGLPCAPLTDKQLADPMLQEYLEYRRVKAESARESEGRVENYYAVPLSLATRLIKKRYVLCRAGQAILFRDQVQEVFLTVFCARLNRGLHNAYLARVKQQALEEETAKSTVMAMLDAFLQQFISDPVDTLQEGVAGSVRARDVQRLAQAHFPPCMRAIDWHLRREGHLKHHGRFMYGLFLKSIGLSLEDSLELFATLMKVKGGGSVEAFAKTAYGYNVRHNYGMEGKKMSYSSASCATILGLPPVVDQHDCHGCPFRFRDEGALRTMLGKETENPKGCDYPSVRPTPGDIEDIVSDSKAQHYTRACYKYFMATHPGARRDTLFRSPYEYYSVSLEFETPSDGTESARPSAVPGKRTSVVLNEDVLRFRTSP” belongs “not soluble”; to “MGSDKIHHHHHHMLASDLLVIDFAQKDDVLKLYPEAPLLSSDKAQWDGIQLQYHRHPPHQLSENHSKQHRIIIHDRSPSPPMVEEMIEHRFQKRQFGYGDVTVVPADVLNSAYWNTEYEFITLSFEARTFARHTFDLTTATDIELVPSFSKPDQLIYSLGFALKSELESSGVGSRLYIDSLTAALMTHLLRHYSAQRSISRPQSGLAKCQLQKVIDFINQNLEQDLALAELAAIVQMSPSYFSTLFKHSTGLAPHQYVIQCRVDRAKQLLRQSNLTIAEIAYSLGFTHQSHLSRHFKRLVGVSPKVFIKSQ”, “not soluble”.
Take “MCPILWTRNGSHCYYFSMEKKDWNSSLKFCADKGSHLLTFPDNQGVKLFGEYLGQDFYWIGLRNIDGWRWEGGPALSLRILTNSLIQRCGAIHRNGLQASSCEVALQWICKKVLY”: the “soluble on expression in E. coli” value was “soluble”.
To “GSGYREVEYWDQRYQGAADSAPYDWFGDFSSFRALLEPELRPEDRILVLGCGNSALSYELFLGGFPNVTSVDYSSVVVAAMQACYAHVPQLRWETMDVRKLDFPSASFDVVLEKGTLDALLAGERDPWTVSSEGVHTVDQVLSEVSRVLVPGGRFISMTSAAPHFRTRHYAQAYYGWSLRHATYGSGFHFHLYLMHKGGKLSVAQLALGAQILSP” belongs “soluble”; to “MGSDKIHHHHHHMKVHVLASGSTGNAVLFQFGESKILVDAGISCRRIENGLQAIGTRAGELDAVLLTHEHTDHIKGLDVFIRKYQLPVFARPATWSKIDCRKKFPGECIKELEGTFSLGKVLIEPFAISHDAIDPVGFCFYYGKRKAVIATDLGMVSREVEKALSFSDIAVLESNHDPQMLKNGPYPPYLKKRIEGREGHLSNFDTARLLSTVPRHNPMQVLLAHISQQNNHPMLAQQTVSKIMQDSGCEVGREIGIYPTFPHHGITCTMTRVFAVNAPLFQWADLLAKQDGRGKAN”, “not soluble”; to “MPESYWEKVSGKNIPSSLDLYPIIHNYLQEDDEILDIGCGSGKISLELASLGYSVTGIDINSEAIRLAETAARSPGLNQKTGGKAEFKVENASSLSFHDSSFDFAVMQAFLTSVPDPKERSRIIKEVFRVLKPGAYLYLVEFGQNWHLKLYRKRYLHDFPITKEEGSFLARDPETGETEFIAHHFTEKELVFLLTDCRFEIDYFRVKELETRTGNKILGFVIIAQKLLEHHHHHH”, “soluble”.
To “SLEIRRSDAPRLVDLVRRAQASVNRLATEREALTTRIDSVHGRSVDTALAAMQRRSAKLAGVAAMNPVHGPGLVVTLQDAQRDANGRFPRDASPDDLVVHQQDIEAVLNALWNAGAEAIQMQDQRIIAMSIARCVGNTLLLNGRTYSPPYTIAAIGDAAAMQAALAAAPLVTLYKQYVVRFGLGYCEEVHPDLQIVGYADPVRMHFAQPAGPLDY” belongs “soluble”; to “IKDFNYGVKFVLSDDQRKVTRYPNEELNRNQWYAGRMDGLVWGYETVGIAKTDAEMEAHLASLPNGGQSQLGSKWAAGDIMYKDLNGDGKISSGDGTLNDLGDLKVVANTQLRFKYGLTLDASWKGFDFSAFFQGVGKRDVVVGGPYFWGANGQGMWQAAAFKDHMDYFRPEDTESVFGPNVDAYYPRVIFGGGSSEGGKNTLTQSRYVQNGAYIRLKNLQLGYTLPSTITKKFAVNSLRVYVSGDNLWTGTKMRVFDPEVLGSTGDAGKAYPLARVWSVGLNVNF”, “not soluble”; to “MTQVYDGFVHLGFSNRNGRTISHKKYQEGNSRVSADNSDANGVPYYFLINMGGGFVEGEQYQVTIDVNKDAHALVTTQTPTYVYKCEKGQLTQQNTSITLEENSYLEYMADEVIPYLKSRYFQTSRIDMDKSAHLIYSDGVTAGWSHEDLPFQYHYFRNLTQIYQDNELVYSDQTLLEPEKQDMFKLGYFEGWRNYNSLVMVSPNIDEAFVKALQKHLEGLNLESDFAISSLDISGLVLRILGKTAEDNRRIIYSCADYFRQEIHGLTPLNLRKNDMRRLEHHHHHH”, “soluble”.
With “MLTSGETVNVVLDFTKCTSTDDQKKPGMMRGDLRISAFLIRPDNSISFSDEHFTITTMDKEPIYQFLRYSLKPDETASFTMTTLSMPEKAHKGEVIAYNCKFATALEHHHHHH”, the “soluble on expression in E. coli” value is given as “not soluble”.
The same measure for “SEEAGSVALEELVEKEKDRFFSGVDYIVISDNLWISQRKPAITYGTRGNSYFMVEVKCRDQDFHSGTFGGILHEPMADLVALLGSLVDSSGHILVPGIYDEVVPLTEEEINTYKAIHLDLEEYRNSSRVEKFLFDTKEEILMHLWRYPSLSIHGIEGAFDEPGTKTVIPGRVIGKFSIRLVPHMNVSAVEKQVTRHLEDVFSKRNSSNKMVVSMTLGLHPWIANIDDTQYLAAKRAIRTVFGTEPDMIRDGSTIPIAKMFQEIVHKSVVLIPLGAVDDGEHSQNEKINRWNYIEGTKLFAAFFLEMAQLH”: “soluble”.

These data come from the DeepSol protein solubility set.
